Data on 8 molecules can be found in patent US20190211057A1 (NATIONAL YANG MING UNIVERSITY, published 2019).

Changes are numbered by the printed parent chain. Names and notes keep the numbering of the source. Bounds are passed on as bounds.

In test [1] the target is T1, integrin αvβ3 receptor (UniProt P06756 31-992; P05106 27-718).
T1 construct: also called αvβ3 integrin; αvβ3 integrin receptor
Description: ELISA on integrin αvβ3 receptor, anti-His6-HRP; paragraph 61 says yCD and yCD/UPRT cannot be bound to integrin αvβ3. (ELISA stands for enzyme-linked immunosorbent assay.)
Description: (§1) The dissociation constant Kd is obtained by prism software with curve fitting method.

The target in test [2] is T2, integrin αvβ3 receptor on cells (HUVEC, U87MG, MCF-7, ES-2-luc) (human, UniProt P06756 31-1048; P05106 27-788).
T2 construct: whole, on cells; HUVEC and U87MG express αvβ3 highly, MCF-7 has low or no expression and ES-2-luc moderate expression; also called integrin αvβ3 on cells; integrin receptor on the cell membrane
T2 sequence (P06756 31-1048, chain 1 of 2): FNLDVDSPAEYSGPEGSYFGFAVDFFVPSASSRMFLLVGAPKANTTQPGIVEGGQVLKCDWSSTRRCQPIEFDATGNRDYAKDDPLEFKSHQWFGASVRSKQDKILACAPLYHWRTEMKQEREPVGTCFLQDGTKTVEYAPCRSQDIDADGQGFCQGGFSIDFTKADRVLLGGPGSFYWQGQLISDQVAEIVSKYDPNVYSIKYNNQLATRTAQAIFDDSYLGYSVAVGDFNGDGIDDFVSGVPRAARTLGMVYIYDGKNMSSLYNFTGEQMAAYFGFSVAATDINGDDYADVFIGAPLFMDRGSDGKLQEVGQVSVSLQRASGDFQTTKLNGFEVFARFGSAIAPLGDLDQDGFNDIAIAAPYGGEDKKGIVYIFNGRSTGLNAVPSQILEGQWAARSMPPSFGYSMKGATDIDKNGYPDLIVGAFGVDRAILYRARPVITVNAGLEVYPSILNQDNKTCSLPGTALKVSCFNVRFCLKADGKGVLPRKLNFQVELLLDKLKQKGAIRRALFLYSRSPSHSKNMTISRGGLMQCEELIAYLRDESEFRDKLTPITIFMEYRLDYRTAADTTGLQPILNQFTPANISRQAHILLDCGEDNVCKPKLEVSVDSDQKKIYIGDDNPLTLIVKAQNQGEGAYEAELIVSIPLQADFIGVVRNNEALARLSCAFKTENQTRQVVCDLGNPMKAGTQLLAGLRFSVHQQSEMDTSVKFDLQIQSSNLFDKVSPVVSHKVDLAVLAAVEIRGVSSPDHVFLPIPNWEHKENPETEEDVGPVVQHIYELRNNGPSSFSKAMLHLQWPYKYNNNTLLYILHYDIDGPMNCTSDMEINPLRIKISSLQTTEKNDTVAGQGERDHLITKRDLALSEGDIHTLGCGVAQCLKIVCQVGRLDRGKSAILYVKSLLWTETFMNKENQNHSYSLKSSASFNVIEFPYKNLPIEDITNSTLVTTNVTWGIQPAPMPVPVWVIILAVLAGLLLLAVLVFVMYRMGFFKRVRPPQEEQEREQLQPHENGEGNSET
T2 sequence (P05106 27-788, chain 2 of 2): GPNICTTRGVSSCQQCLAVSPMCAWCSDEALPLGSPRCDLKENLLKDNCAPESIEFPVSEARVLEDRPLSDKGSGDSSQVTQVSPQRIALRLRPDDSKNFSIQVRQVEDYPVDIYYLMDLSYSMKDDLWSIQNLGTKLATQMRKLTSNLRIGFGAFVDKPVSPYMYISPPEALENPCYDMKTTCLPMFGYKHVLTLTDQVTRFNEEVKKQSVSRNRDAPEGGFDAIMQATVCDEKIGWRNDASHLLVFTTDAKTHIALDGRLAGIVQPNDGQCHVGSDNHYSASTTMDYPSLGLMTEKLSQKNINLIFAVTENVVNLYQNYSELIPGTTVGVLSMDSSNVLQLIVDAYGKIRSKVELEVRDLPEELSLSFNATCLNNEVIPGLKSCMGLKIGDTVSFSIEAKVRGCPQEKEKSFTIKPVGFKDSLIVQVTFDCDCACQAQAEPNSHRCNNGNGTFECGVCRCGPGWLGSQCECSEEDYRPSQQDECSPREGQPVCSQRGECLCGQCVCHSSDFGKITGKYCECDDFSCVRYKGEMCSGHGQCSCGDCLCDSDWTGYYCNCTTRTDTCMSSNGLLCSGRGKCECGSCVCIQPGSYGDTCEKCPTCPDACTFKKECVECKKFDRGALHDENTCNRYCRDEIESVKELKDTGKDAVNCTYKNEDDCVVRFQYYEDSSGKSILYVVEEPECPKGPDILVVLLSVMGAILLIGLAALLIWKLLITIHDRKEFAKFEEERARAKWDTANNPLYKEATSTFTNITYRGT
The experiment in a line: immunofluorescence on U87MG and HUVEC cells, no anti-His6tag signal.
Description: Immunofluorescence is used to observe the distribution of the protein bound with cell in the cell.

Test [3] deals with T2, integrin αvβ3 receptor on cells (HUVEC, …). The experiment in a line: cell ELISA on MCF-7 cells (low αvβ3 expression), anti-His-HRP.
Description: (§2) After reacted with anti-His-HRP antibody and TMB substrate, ELISA reader (OD450 nm) is used to detect the amount of recombinant protein bound to the cells, and the binding curve is drawn. The nonlinear curve of the prism software is used to make a diagram and calculate the dissociation constant (Kd).
(§3) The anti-His6-Tag-HRP antibody and TMB show the color reagent to detect the amount of recombinant protein bound to the cell, then the dissociation constant Kd value of the recombinant protein and the integrin αᵥβ₃ receptor is calculated and a binding curve is drawn.
Test [4] has the same target. The experiment in a line: cell ELISA on HUVEC cells, anti-His-HRP.
Description: as §2, §3
The target is the same in test [5]. The experiment in a line: cell ELISA, HUVEC against MCF-7.
Test [6] shares this target. Description: cell-based or functional assay.
Test [7] shares this target. The experiment in a line: cell ELISA, U87MG against MCF-7.
Test [8] has the same target. Description: cell ELISA on U87MG cells, anti-His-HRP.
Description: as §2, §3
The target in test [9] is T1, integrin αvβ3 receptor. Description: ELISA on integrin αvβ3 receptor, anti-His6-HRP detection, curve fit.
Description: as §1
Test [10] has as its target T1, integrin αvβ3 receptor. The experiment in a line: ELISA on integrin αvβ3 receptor, one site-specific binding fit.
Description: The curve and receptor binding ability parameters (see FIG. 19 and Table 14) are fitted by the binding ability of DTPA-modified protein and integrin αᵥβ₃ receptor through the One site-Specific binding formula in the Graph prism program.
The target of test [11] is T1, integrin αvβ3 receptor. The experiment in a line: ELISA on integrin αvβ3 receptor (repeats Table 14).
In test [12] the target is T2, integrin αvβ3 receptor on cells (HUVEC, …). Description: cell ELISA on fixed MCF-7 cells (low αvβ3 expression), anti-His6tag-HRP.
Test [13] shares this target. The experiment in a line: cell-based or functional assay. This is another data set of the same source.
The target is the same in test [14]. The experiment in a line: cell ELISA on fixed HUVEC cells, anti-His6tag-HRP.
The target is the same in test [15]. The experiment in a line: cell ELISA on fixed U87MG cells, anti-His6tag-HRP.
In test [16] the target is T1, integrin αvβ3 receptor. Description: ELISA on αvβ3 integrin receptor.
Test [17] deals with T2, integrin αvβ3 receptor on cells (HUVEC, …). Description: cell-based or functional assay. This is another data set of the same source.

T1 sequence (P06756 31-992, chain 1 of 2): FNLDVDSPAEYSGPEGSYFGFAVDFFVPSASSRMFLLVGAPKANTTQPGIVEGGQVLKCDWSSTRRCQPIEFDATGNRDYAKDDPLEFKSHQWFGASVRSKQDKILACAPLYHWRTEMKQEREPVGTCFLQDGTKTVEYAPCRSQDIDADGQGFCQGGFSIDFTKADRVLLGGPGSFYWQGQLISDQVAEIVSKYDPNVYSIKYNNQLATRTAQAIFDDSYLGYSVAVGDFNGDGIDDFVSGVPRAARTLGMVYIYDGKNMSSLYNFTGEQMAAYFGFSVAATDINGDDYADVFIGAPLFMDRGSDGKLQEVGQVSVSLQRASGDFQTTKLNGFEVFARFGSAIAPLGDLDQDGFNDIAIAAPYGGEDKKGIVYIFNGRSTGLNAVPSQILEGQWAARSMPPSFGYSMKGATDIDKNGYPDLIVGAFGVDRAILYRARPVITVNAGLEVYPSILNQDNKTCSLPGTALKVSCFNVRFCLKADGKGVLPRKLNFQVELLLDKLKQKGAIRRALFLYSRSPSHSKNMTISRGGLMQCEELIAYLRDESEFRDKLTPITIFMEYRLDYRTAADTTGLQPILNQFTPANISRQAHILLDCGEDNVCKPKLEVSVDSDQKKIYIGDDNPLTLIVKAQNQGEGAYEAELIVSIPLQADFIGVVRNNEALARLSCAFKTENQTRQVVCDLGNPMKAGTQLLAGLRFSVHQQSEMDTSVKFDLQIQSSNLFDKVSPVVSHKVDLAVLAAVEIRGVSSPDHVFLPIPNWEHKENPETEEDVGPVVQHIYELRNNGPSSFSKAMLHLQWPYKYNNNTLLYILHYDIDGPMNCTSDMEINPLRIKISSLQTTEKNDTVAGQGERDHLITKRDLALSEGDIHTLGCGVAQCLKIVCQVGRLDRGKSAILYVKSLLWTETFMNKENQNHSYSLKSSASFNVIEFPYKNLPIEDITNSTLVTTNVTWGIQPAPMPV
T1 sequence (P05106 27-718, chain 2 of 2): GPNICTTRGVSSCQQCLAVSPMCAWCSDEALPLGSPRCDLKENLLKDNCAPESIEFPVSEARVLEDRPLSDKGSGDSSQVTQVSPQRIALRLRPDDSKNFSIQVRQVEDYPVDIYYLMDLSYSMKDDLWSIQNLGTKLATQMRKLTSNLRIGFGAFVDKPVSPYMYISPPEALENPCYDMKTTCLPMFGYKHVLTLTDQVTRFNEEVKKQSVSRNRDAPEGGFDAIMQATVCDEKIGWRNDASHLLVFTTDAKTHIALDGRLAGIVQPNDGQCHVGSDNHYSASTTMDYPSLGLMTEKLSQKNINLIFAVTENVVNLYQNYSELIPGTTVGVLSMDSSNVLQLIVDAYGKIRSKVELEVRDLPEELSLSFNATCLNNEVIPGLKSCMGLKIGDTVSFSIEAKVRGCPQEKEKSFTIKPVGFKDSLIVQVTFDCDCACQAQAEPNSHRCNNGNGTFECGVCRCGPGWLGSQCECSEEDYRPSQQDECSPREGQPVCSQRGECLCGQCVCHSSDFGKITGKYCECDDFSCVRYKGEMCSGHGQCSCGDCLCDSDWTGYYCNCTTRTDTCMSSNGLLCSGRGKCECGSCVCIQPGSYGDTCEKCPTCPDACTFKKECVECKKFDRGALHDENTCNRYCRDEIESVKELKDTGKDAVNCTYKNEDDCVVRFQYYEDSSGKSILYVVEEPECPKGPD

B1: yCD/UPRT (enzyme)
chain: MVVTGGMASKWDQKGMDIAYEEAALGYKEGGVPIGGCLINNKDGSVLGRGHNMRFQKGSATLHGEISTLENCGRLEGKVYKDTTLYTTLSPCDMCTGAIIMYGIPRCVVGENVNFKSKGEKYLQTRGHEVVVVDDERCKKIMKQFIDERPQDWFEDIGEASEPFKNVYLLPQTNQLLGLYTIIRNKNTTRPDFIFYSDRIIRLLVEEGLNHLPVQKQIVETDTNENFEGVSFMGKICGVSIVRAGESMEQGLRDCCRSVRIGKILIQRDEETALPKLFYEKLPEDISERYVFLLDPMLATGGSAIMATEVLIKRGVKPERIYFLNLICSKEGIEKYHAAFPEVRIVTGALDRGLDENKYLVPGLGDFGDRYYCVLEHHHHHH
notes: Control fusion without RGD4C
B1: the binding result in the test with integrin αvβ3 receptor [1] was “no binding”.

B2: EcCD_WT (enzyme, E. coli)
chain: MSNNALQTIINARLPGEEGLWQIHLQDGKISAIDAQSGVMPITENSLDAEQGLVIPPFVEPHIHLDTTQTAGQPNWNQSGTLFEGIERWAERKALLTHDDVKQRAWQTLKWQIANGIQHVRTHVDVSDATLTALKAMLEVKQEVAPWIDLQIVAFPQEGILSYPNGEALLEEALRLRADVVGAIPHFEFTREYGVESLHKTFALAQKYDRLIDVHCDEIDDEQSRFVETVAALAHHEGMGARVTASHTTAMHSYNGAYTSRLFRLLKMSGINFVANPLVNIHLQGRFDTYPKRRGITRVKEMLESGINVCFGHDDVFDPWYPLGTANMLQVLHMGLHVCQLMGYGQINDGLNLITHHSARTLNLQDYGIAAGNSANLIILPAENGFDALRRQVPVRYSVRGGKVIASTQPAQTTVYLEQPEAIDYKRLEHHHHHH
notes: Control without RGD4C; also called E. coli cytosine deaminase (EcCD) wild type
Turning to B2, the binding result in test [2] was “no binding”.

B3: EcCD_D314A (enzyme)
chain: B2 chain with D315A
notes: Control without RGD4C; also called E. coli cytosine deaminase D314A mutant
B3: the binding result in [2] is given as “no binding”.

B4: RGD4C-yCD/UPRT (other)
chain: MACDCRGDCFCVTGGMASKWDQKGMDIAYEEAALGYKEGGVPIGGCLINNKDGSVLGRGHNMRFQKGSATLHGEISTLENCGRLEGKVYKDTTLYTTLSPCDMCTGAIIMYGIPRCVVGENVNFKSKGEKYLQTRGHEVVVVDDERCKKIMKQFIDERPQDWFEDIGEASEPFKNVYLLPQTNQLLGLYTIIRNKNTTRPDFIFYSDRIIRLLVEEGLNHLPVQKQIVETDTNENFEGVSFMGKICGVSIVRAGESMEQGLRDCCRSVRIGKILIQRDEETALPKLFYEKLPEDISERYVFLLDPMLATGGSAIMATEVLIKRGVKPERIYFLNLICSKEGIEKYHAAFPEVRIVTGALDRGLDENKYLVPGLGDFGDRYYCVLEHHHHHH
notes: Fusion of the RGD4C peptide, yCD and yeast UPRT; His6-tagged recombinant protein; also called RGD4C-yCD/UPRPT
Turning to B4, the Kd in test [3] was determined as 335 nM; in test [4], 48.3 nM; in test [8], 57.8 nM; in the test with integrin αvβ3 receptor [9] it was 41.7 nM. Moreover, the “fold cell binding ability against MCF-7” value in test [5] is ~6.9 fold; in test [7], ~5.8 fold. Further, the “IC50 of 5-FC, MTT cytotoxicity, HUVEC cells incubated with 500 nM protein then washed” value in test [6] was determined as 8.6 µM. For the same molecule, in [6], the “IC50 of 5-FC, MTT cytotoxicity, MCF-7 cells (low αvβ3) incubated with 500 nM protein then washed” value was 4.34 mM. For the same molecule, in test [6], the “IC50 of 5-FC, MTT cytotoxicity, U87MG cells incubated with 500 nM protein then washed” value came to 5.1 µM.

B5: DTPA-RGD4C-yCD (other)
chain: MACDCRGDCFCVTGGMASKWDQKGMDIAYEEAALGYKEGGVPIGGCLINNKDGSVLGRGHNMRFQKGSATLHGEISTLENCGRLEGKVYKDTTLYTTLSPCDMCTGAIIMYGIPRCVVGENVNFKSKGEKYLQTRGHEVVVVDDERCKKIMKQFIDERPQDWFEDIGELEHHHHHH
modifications: DTPA on primary amines, 0.94 DTPA per protein on average
For B5, the Kd in the test with integrin αvβ3 receptor [10] and in the test with integrin αvβ3 receptor [11] was 47.6 nM each time.

B6: yeast cytosine deaminase (yCD) (enzyme)
chain: MVVTGGMASKWDQKGMDIAYEEAALGYKEGGVPIGGCLINNKDGSVLGRGHNMRFQKGSATLHGEISTLENCGRLEGKVYKDTTLYTTLSPCDMCTGAIIMYGIPRCVVGENVNFKSKGEKYLQTRGHEVVVVDDERCKKIMKQFIDERPQDWFEDIGELEHHHHHH
notes: Recombinant, from pET28a(+), detected by its His6 tag
As for B6, the binding result with integrin αvβ3 receptor [1] is listed as “no binding”.

B7: RGD4C-EcCD_WT (other)
chain: MGCDCRGDCFCMSNNALQTIINARLPGEEGLWQIHLQDGKISAIDAQSGVMPITENSLDAEQGLVIPPFVEPHIHLDTTQTAGQPNWNQSGTLFEGIERWAERKALLTHDDVKQRAWQTLKWQIANGIQHVRTHVDVSDATLTALKAMLEVKQEVAPWIDLQIVAFPQEGILSYPNGEALLEEALRLRADVVGAIPHFEFTREYGVESLHKTFALAQKYDRLIDVHCDEIDDEQSRFVETVAALAHHEGMGARVTASHTTAMHSYNGAYTSRLFRLLKMSGINFVANPLVNIHLQGRFDTYPKRRGITRVKEMLESGINVCFGHDDVFDPWYPLGTANMLQVLHMGLHVCQLMGYGQINDGLNLITHHSARTLNLQDYGIAAGNSANLIILPAENGFDALRRQVPVRYSVRGGKVIASTQPAQTTVYLEQPEAIDYKRLEHHHHHH
notes: Fusion of the RGD4C peptide with E. coli cytosine deaminase; His6-tagged
B7: the dissociation constant Kd amounted to 327 nM in test [12], 20.3 nM in test [14], 13.8 nM in test [15] and 7 nM in the test with integrin αvβ3 receptor [16]. Moreover, the “IC50 of 5-FC, MTT cytotoxicity, HUVEC cells incubated with 50 nM protein then washed” value in test [13] was determined as 35.9 µM. The “IC50 of 5-FC, MTT cytotoxicity, MCF-7 cells (low αvβ3) incubated with 50 nM protein then washed” value in test [13] is > 10 mM. In [13], the “IC50 of 5-FC, MTT cytotoxicity, U87MG cells incubated with 50 nM protein then washed” value was 44.1 µM. Further, in [17], the “protein reaction concentration IC50 of cytotoxic effect, MTT, HUVEC cells, 100 µM 5-FC” value came to 22.9 nM. The “protein reaction concentration IC50 of cytotoxic effect, MTT, U87MG cells, 100 µM 5-FC” value in test [17] amounted to 38.5 nM. In addition, the “fold binding ability against MCF-7” value in test [5] stood at 16.1 fold; in test [7] it was 23.7 fold.

B8: RGD4C-EcCD_D314A (other)
chain: B7 chain with D326A
notes: Fusion of the RGD4C peptide with the E. coli cytosine deaminase D314A mutant; His6-tagged
For the molecule B8, the Kd in test [12] was determined as 300 nM; in [14], 23.3 nM; in [15], 15.1 nM; in the test with integrin αvβ3 receptor [16] it was 9.1 nM. For the same molecule, the “IC50 of 5-FC, MTT cytotoxicity, HUVEC cells incubated with 50 nM protein then washed” value in test [13] worked out at 8.2 µM. In addition, the “IC50 of 5-FC, MTT cytotoxicity, MCF-7 cells (low αvβ3) incubated with 50 nM protein then washed” value in test [13] is > 10 mM. For the same molecule, the “IC50 of 5-FC, MTT cytotoxicity, U87MG cells incubated with 50 nM protein then washed” value in [13] was determined as 5 µM. Further, the “protein reaction concentration IC50 of cytotoxic effect, MTT, HUVEC cells, 100 µM 5-FC” value in test [17] was found to be 9.8 nM. Besides, the “protein reaction concentration IC50 of cytotoxic effect, MTT, U87MG cells, 100 µM 5-FC” value in test [17] came to 4 nM. Moreover, the “fold binding ability against MCF-7” value in [5] is 12.9 fold; in test [7], 19.9 fold.

Broadly, the Kd is the concentration at which binding is half-saturated.
